Where no end group is shown, it is not given here. [ ]: non-standard residue; d: D form. Ahx = NCCCCCC(=O)O
Target: amyloid precursor protein APP695 in HEK 293-APP cells (human), P05067
Test: cell-based or functional assay

Sequence of amyloid precursor protein APP695 in HEK 293-APP cells (human), P05067 (P05067 18-770): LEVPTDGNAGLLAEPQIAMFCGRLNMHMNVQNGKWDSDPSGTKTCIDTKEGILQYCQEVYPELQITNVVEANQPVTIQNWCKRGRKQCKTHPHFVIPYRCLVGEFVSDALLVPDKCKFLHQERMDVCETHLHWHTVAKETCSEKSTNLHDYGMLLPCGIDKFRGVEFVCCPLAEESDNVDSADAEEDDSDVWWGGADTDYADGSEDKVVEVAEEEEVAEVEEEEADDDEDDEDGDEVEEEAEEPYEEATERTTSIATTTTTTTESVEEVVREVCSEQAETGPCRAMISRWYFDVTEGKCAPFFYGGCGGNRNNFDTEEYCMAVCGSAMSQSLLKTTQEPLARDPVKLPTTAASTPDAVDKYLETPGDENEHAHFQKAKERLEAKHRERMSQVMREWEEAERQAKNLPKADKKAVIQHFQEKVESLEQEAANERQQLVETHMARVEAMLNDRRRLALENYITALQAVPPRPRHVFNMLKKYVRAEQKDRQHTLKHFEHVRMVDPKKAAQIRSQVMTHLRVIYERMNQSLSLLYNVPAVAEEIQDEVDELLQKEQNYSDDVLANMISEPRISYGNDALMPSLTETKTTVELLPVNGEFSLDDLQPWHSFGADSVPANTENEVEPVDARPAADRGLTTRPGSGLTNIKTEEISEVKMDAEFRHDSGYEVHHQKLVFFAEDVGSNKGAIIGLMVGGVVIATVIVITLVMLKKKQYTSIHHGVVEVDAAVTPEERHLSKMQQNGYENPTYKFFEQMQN

reduction of Aβ released from HEK293-APP cells (sandwich ELISA) at 6.25 µM peptide: 70%
B1: 6-aminohexanoic acid-c-Sub M ΔN3C1 (NH2-(CH2)5-CO-Cys-Ile-Gln-Ile-His-Phe-NH2) (peptide)
peptide: [Ahx]CIQIHF-NH2
modifications: N-terminus assumed
SMILES: CC[C@H](C)[C@H](NC(=O)[C@H](CCC(N)=O)NC(=O)[C@@H](NC(=O)[C@H](CS)NC(=O)CCCCCN)[C@@H](C)CC)C(=O)N[C@@H](Cc1c[nH]cn1)C(=O)N[C@@H](Cc1ccccc1)C(N)=O

From patent publication US20070027089A1
